Positions count from the first letter of the chain named. Where two headings read alike, the source gives them in different places.
Columns and labels:
[1] = biological target: T1, mutant feline IL-31 15H05 protein (Feline_IL31_15H05_mutant) (feline); experiment: Biacore, IL-31 protein as surface capture
T1 construct: also called feline 15H05 mutant; 15H05 IL-31 mutant
T1 chain: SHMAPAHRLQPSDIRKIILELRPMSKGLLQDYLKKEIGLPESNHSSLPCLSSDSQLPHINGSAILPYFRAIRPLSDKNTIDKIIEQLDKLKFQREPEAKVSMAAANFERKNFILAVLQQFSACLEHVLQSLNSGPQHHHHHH
Method: (§1) The affinity with which candidate mAbs bind canine and feline IL-31 was determined using surface plasmon resonance (SPR) on a Biacore system (Biocore Life Sciences (GE Healthcare), Uppsala, Sweden). To avoid affinity differences associated with differential surface preparation that can occur when immobilizing antibodies to surfaces; a strategy was employed where IL-31 was directly conjugated to the surface. Immobilization was obtained by amine coupling 5 μg/mL IL-31 using N-hydroxysuccinimide (NHS)/1-Ethyl-3-(3-dimethylaminopropyl) carbodiimide (EDC) chemistry. Chips were quenched with ethanolamine and the affinity with which all candidate mAbs bound to the immobilized IL-31 was evaluated. All curves were fit to a 1:1 model. […] Results for affinity measurements are described herein.
(§2) Table 1 below describes the results for biacore analysis using multiple species of IL-31 protein as a surface capture.

[2] = biological target: T2, wildtype feline IL-31 protein (Feline_IL31_wildtype) (feline); experiment: cell-based or functional assay
T2 chain: T1 chain with A103P, A105D

[3] = biological target: T2, wildtype feline IL-31 protein …; experiment: SPR (Biacore), IL-31 on chip, 1:1 fit
Procedure, shortened: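 IL-31 was amine-coupled (NHS/EDC) to the chip at 5 μg/mL and quenched with ethanolamine, and candidate mAbs were flowed over it as analytes. Binding curves were fitted to a 1:1 model.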

[4] = biological target: T3, canine IL-31 protein (Canine_IL31) (canine); experiment: SPR (Biacore), IL-31 protein as surface capture
T3 chain: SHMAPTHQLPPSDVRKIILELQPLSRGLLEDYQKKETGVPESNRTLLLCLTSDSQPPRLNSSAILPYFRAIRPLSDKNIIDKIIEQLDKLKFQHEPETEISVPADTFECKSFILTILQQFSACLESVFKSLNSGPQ

[5] = biological target: T3, canine IL-31 protein (Canine_IL31)
[6] = biological target: T4, mutant feline IL-31 11E12 protein (Feline_IL31_11E12_mutant) (feline); experiment: SPR (Biacore), IL-31 protein as surface capture
T4 construct: also called feline 11E12 mutant; 11E12 IL-31 mutant
T4 chain: T1 chain with D81A, I84A, A103P, A105D
Method: as §1, §2

[7] = biological target: T2, wildtype feline IL-31 protein …; experiment: SPR (Biacore), IL-31 protein as surface capture
Method: as §1, §2

[8] = biological target: T5, equine IL-31 protein (Equine_IL31) (equine); experiment: SPR (Biacore), IL-31 protein as surface capture
T5 construct: Recombinant equine IL-31
T5 chain: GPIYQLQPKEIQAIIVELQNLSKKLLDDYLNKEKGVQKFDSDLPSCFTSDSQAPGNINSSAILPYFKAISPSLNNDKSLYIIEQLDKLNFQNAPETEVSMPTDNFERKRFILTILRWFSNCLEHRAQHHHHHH
Method: as §1, §2

[9] = biological target: T3, canine IL-31 protein (Canine_IL31); experiment: cell-based or functional assay
[10] = biological target: T2, wildtype feline IL-31 protein …; experiment: cell-based or functional assay
[11] = biological target: T2, wildtype feline IL-31 protein …; experiment: Biacore, feline IL-31 chip, mAb 100 nM, share of points within parent mean +/-3 SD; parameters: key: % of mutant data points within parent mAb mean ±3 SD
Description: The region of an antibody responsible for antigen recognition represents the paratope. A paratope is created by a combination of amino acids in the complementarity determining regions (CDRs) of both the heavy and light chain variable regions. The binding between antibody and antigen is often mediated by side chains of CDR residues with side chains or carbohydrate moieties of the antigen. To help define critical side chains involved in antibody recognition alanine scanning mutagenesis was performed on each CDR residue in both the heavy and light chain. These mutants were then individually tested for the ability to bind feline IL-31 using the biacore and evaluated for inhibition of IL-31-mediated signaling in the FCWF-4 cell based assay.
(§3) The mean response unit of four replicates of the parent mAb+/−3 standard deviations was used to generate parameters to define a threshold of response units comprising both the on- and off-rates antibody binding (FIG. 22). The percentage of data points for each mutant fell within this threshold was then used to define a “% similarity score” (FIG. 23).

[12] = biological target: T2, wildtype feline IL-31 protein …; experiment: as above; parameters: key: % of mutant data points within parent mAb mean ±3 SD
Description: as §3

[13] = biological target: T2, wildtype feline IL-31 protein …; experiment: cell-based or functional assay
[14] = biological target: T2, wildtype feline IL-31 protein …; experiment: SPR (Biacore), IL-31 on chip
Method: as §1
FIG. 2 details the affinity of antibodies with CDRs derived from mouse origin using biacore. […] These observations confirm the correct sequence for both mouse antibodies and indicate conversion to the chimeric form results in antibodies with equivalent or higher affinity when compared to the mouse parent with the exception of the mouse:feline 15H05 chimera which lost some affinity to both IL-31 species as a result of its conversion to the chimeric form. […]

[15] = biological target: T2, wildtype feline IL-31 protein …; experiment: cell-based or functional assay
[16] = biological target: T4, mutant feline IL-31 11E12 protein …; experiment: indirect ELISA, feline IL-31 11E12 mutant coated
Description: To determine the impact of mAbs 11E12 and 15H05 ability to bind these mutant forms of feline IL-31, an indirect ELISA was run using the mutants directly coated on to an immunoassay plate. […] When mutant 11E12 is used as a capture protein, binding of mAb 11E12 is highly attenuated and binding of mAb 15H05 is partially attenuated. […] The minor attenuation of mAb 15H05s binding to the 11E12 mutant is likely due to translational effects of the mutations from movement of the two front helices effecting the 15H05 binding site. […] Unlike the 11E12 mutant, the changes in the random coil recognized by mAb 15H05 (mutant 15H05) had no impact on mAb 11E12 binding further supporting the distinction between the two epitopes (FIG. 6C).

[17] = biological target: T3, canine IL-31 protein (Canine_IL31); experiment: SPR (Biacore), IL-31 on chip, 1:1 fit

B1: ZTS-361 (antibody)
heavy: QVLLVQSGAEVRTPGASVKIFCKASGYSFTSYTIHWLRQAPAQGLEWMGNINPTSGYTENNQRFKDRLTLTADTSTNTAYMELSSLRSADTAMYYCARWGFKYDGEWSFDVWGAGTTVTVSSASTTAPSVFPLAPSCGTTSGATVALACLVLGYFPEPVTVSWNSGALTSGVHTFPAVLQASGLYSLSSMVTVPSSRWLSDTFTCNVAHPPSNTKVDKTVRKTDHPPGPKPCDCPKCPPPEAAGAPSIFIFPPKPKDTLSISRTPEVTCLVVDLGPDDSDVQITWFVDNTQVYTAKTSPREEQFNSTYRVVSVLPILHQDWLKGKEFKCKVNSKSLPSPIERTISKAKGQPHEPQVYVLPPAQEELSRNKVSVTCLIKSFHPPDIAVEWEITGQPEPENNYRTTPPQLDSDGTYFVYSKLSVDRSHWQRGNTYTCSVSHEALHSHHTQKSLTQSPGK
light: EIQMTQSPSSLSASPGDRVTITCRASQGISIWLSWYQQKPGNIPKVLINKASNLHIGVPSRFSGSGSGTDFTLTISSLEPEDAATYYCLQSQTYPLTFGGGTKLEIKRSDAQPSVFLFQPSLDELHTGSASIVCILNDFYPKEVNVKWKVDGVVQNKGIQESTTEQNSKDSTYSLSSTLTMSSTEYQSHEKFSCEVTHKSLASTLVKSFQRSECQRE
- binding result [1]: no binding
- Inhibition of IL-31 induced pSTAT3 IC50 (µg/ml), Feline IL-31 on Feline FCWF-4 cells [2]: 8.85 µg/ml
- Kd [3]: 0.474 nM
- koff [3]: 2.18e-05 s⁻¹
- kon [3]: 46000 M⁻¹ s⁻¹
- Kd [4]: 0.00241 nM
- IC50, inhibition of canine IL-31-induced STAT3 phosphorylation, feline FCWF4 cells [5]: 38.8 µg/mL
- Kd [6]: 17.2 nM
- Kd [7]: 0.625 nM
- Kd [8]: 0.625 nM
- Inhibition of IL-31 induced pSTAT3 IC50 (µg/ml), Canine IL-31 on Canine DH82 cells [9]: 23 µg/ml

B2: ZTS-1505 (antibody)
heavy: B1 heavy
light: EIQMTQSPSSLSASPGDRVTITCRASQGISIWLSWYQQKPGNIPKVLINKASNLHIGVPSRFSGSGSGTDFTLTISSLEPEDAATYYCLQSQTYPLTFGGGTKLEIKRSDAQPSVFLFQPSLDELHTGSASIVCILNDFYPKEVNVKWKVDGVVQNKGIQESTTEQNSKDSTYSLSSTLTMSSTEYQSHEKFSCEVTHKSLASTLVKSFQRSEC
- % Inhibition Relative to Parent (pSTAT, FCWF-4 cells) [10]: 100%
- binding result [1]: no binding
- Binding Similarity score [11]: 97
- Inhibition of IL-31 induced pSTAT3 IC50 (µg/ml), Feline IL-31 on Feline FCWF-4 cells [2]: 4.53 µg/ml
- Kd [4]: 0.00183 nM
- Binding Similarity score [12]: 97
- % Inhibition Relative to Parent (pSTAT, FCWF-4 cells) [13]: 100%
- Kd [6]: 19.5 nM
- Kd [7]: 0.575 nM
- Kd [8]: 0.575 nM
- Inhibition of IL-31 induced pSTAT3 IC50 (µg/ml), Canine IL-31 on Canine DH82 cells [9]: 21.8 µg/ml

B3: Feline 11E12 1.2 (antibody, V domains shown)
VH: QVLLVQSGAEVKKPGASVKIFCKASGYSFTYYDINWLRQAPEQGLEWMGWIFPGDGGTKYNETFKGRLTLTADTSTNTVYMELSSLRSADTAMYYCARGGTSVIRDAMDYWGQGALVTVSS
VL: EVVLTQSSAFLSRTLKEKATITCRASESVDNYGISFMHWYQQKPNQAPKLLVKRASNLESGAPSRFSGSGSGTDFTLTISSPEPEDAATYYCQQSNKDPLTFGQGT
notes: Feline heavy and kappa constant regions; also called felinized 11E12 1.2
- binding result [14]: no binding
- IC50, inhibition of feline IL-31-induced STAT3 phosphorylation, canine DH82 cells [15]: > 100 µg/mL
- IC50, inhibition of feline IL-31-induced STAT3 phosphorylation, feline FCWF4 cells [15]: > 100 µg/mL

B4: mouse:feline 11E12 chimera (antibody)
heavy: QVQLQQSGAELVKPGASVKLSCKASGYTFKYYDINWVRQRPEQGLEWIGWIFPGDGGTKYNETFKGKATLTTDKSSSTAYMQLSRLTSEDSAVYFCARGGTSVIRDAMDYWGQGTSVTVSSASTTAPSVFPLAPSCGTTSGATVALACLVLGYFPEPVTVSWNSGALTSGVHTFPAVLQASGLYSLSSMVTVPSSRWLSDTFTCNVAHPPSNTKVDKTVRKTDHPPGPKPCDCPKCPPPEAAGAPSIFIFPPKPKDTLSISRTPEVTCLVVDLGPDDSDVQITWFVDNTQVYTAKTSPREEQFNSTYRVVSVLPILHQDWLKGKEFKCKVNSKSLPSPIERTISKAKGQPHEPQVYVLPPAQEELSRNKVSVTCLIKSFHPPDIAVEWEITGQPEPENNYRTTPPQLDSDGTYFVYSKLSVDRSHWQRGNTYTCSVSHEALHSHHTQKSLTQSPGK
light: DIVLTQSPASLAVSLGQRATISCRASESVDNYGISFMHWYQQKPGQPPKLLIYRASNLESGIPARFSGSGSRTDFTLTINPVETDDVATYYCQQSNKDPLTFGAGTKLELKRSDAQPSVFLFQPSLDELHTGSASIVCILNDFYPKEVNVKWKVDGVVQNKGIQESTTEQNSKDSTYSLSSTLTMSSTEYQSHEKFSCEVTHKSLASTLVKSFQRSECQRE
notes: Mouse variable regions on feline IgG constant regions; made in HEK 293 cells
- Kd [3]: 0.13 nM
- koff [3]: 5.06e-05 s⁻¹
- kon [3]: 388000 M⁻¹ s⁻¹
- binding result [16]: binds
- Kd [17]: 0.000127 nM
- koff [17]: 8.7e-08 s⁻¹
- kon [17]: 684000 M⁻¹ s⁻¹
- IC50, inhibition of feline IL-31-induced STAT3 phosphorylation, canine DH82 cells [15]: 4.4 µg/mL
- IC50, inhibition of feline IL-31-induced STAT3 phosphorylation, feline FCWF4 cells [15]: 3.45 µg/mL

Source: patent US20250136677A1 (ZOETIS SERVICES, published 2025)
